This is an account of results in article PMC4754349, “Tripartite assembly of RND multidrug efflux pumps” (Nature Communications, 2016).

B1: OprM reconstituted into nanodiscs (OprM–ND) (natural protein)
chain: CSLIPDYQRPEAPVAAAYPQGQAYGQNTGAAAVPAADIGWREFFRDPQLQQLIGVALENNRDLRVAALNVEAFRAQYRIQRADLFPRIGVDGSGTRQRLPGDLSTTGSPAISSQYGVTLGTTAWELDLFGRLRSLRDQALEQYLATEQAQRSAQTTLVASVATAYLTLKADQAQLQLTKDTLGTYQKSFDLTQRSYDVGVASALDLRQAQTAVEGARATLAQYTRLVAQDQNALVLLLGSGIPANLPQGLGLDQTLLTEVPAGLPSDLLQRRPDILEAEHQLMAANASIGAARAAFFPSISLTANAGTMSRQLSGLFDAGSGSWLFQPSINLPIFTAGSLRASLDYAKIQKDINVAQYEKAIQTAFQEVADGLAARGTFTEQLQAQRDLVKASDEYYQLADKRYRTGVDNYLTLLDAQRSLFTAQQQLITDRLNQLTSEVNLYKALGGGWNQQTVTQQQTAKKEDPQA
notes: OprM, outer membrane factor of Pseudomonas aeruginosa; called native; One trimer in each nanodisc (POPC, MSP1D1); also called OMF; source: E. coli C43ΔacrB, purified (HisTrap HP, gel filtration Superose 6), reconstituted into POPC/MSP1D1 nanodiscs
B2: MexB reconstituted into nanodiscs (MexB–ND) (natural protein)
chain: MSKFFIDRPIFAWVIALVIMLAGGLSILSLPVNQYPAIAPPAIAVQVSYPGASAETVQDTVVQVIEQQMNGIDNLRYISSESNSDGSMTITVTFEQGTDPDIAQVQVQNKLQLATPLLPQEVQRQGIRVTKAVKNFLMVVGVVSTDGSMTKEDLSNYIVSNIQDPLSRTKGVGDFQVFGSQYSMRIWLDPAKLNSYQLTPGDVSSAIQAQNVQISSGQLGGLPAVKGQQLNATIIGKTRLQTAEQFENILLKVNPDGSQVRLKDVADVGLGGQDYSINAQFNGSPASGIAIKLATGANALDTAKAIRQTIANLEPFMPQGMKVVYPYDTTPVVSASIHEVVKTLGEAILLVFLVMYLFLQNFRATLIPTIAVPVVLLGTFGVLAAFGFSINTLTMFGMVLAIGLLVDDAIVVVENVERVMAEEGLSPREAARKSMGQIQGALVGIAMVLSAVFLPMAFFGGSTGVIYRQFSITIVSAMALSVIVALILTPALCATMLKPIEKGDHGEHKGGFFGWFNRMFLSTTHGYERGVASILKHRAPYLLIYVVIVAGMIWMFTRIPTAFLPDEDQGVLFAQVQTPPGSSAERTQVVVDSMREYLLEKESSSVSSVFTVTGFNFAGRGQSSGMAFIMLKPWEERPGGENSVFELAKRAQMHFFSFKDAMVFAFAPPSVLELGNATGFDLFLQDQAGVGHEVLLQARNKFLMLAAQNPALQRVRPNGMSDEPQYKLEIDDEKASALGVSLADINSTVSIAWGSSYVNDFIDRGRVKRVYLQGRPDARMNPDDLSKWYVRNDKGEMVPFNAFATGKWEYGSPKLERYNGVPAMEILGEPAPGLSSGDAMAAVEEIVKQLPKGVGYSWTGLSYEERLSGSQAPALYALSLLVVFLCLAALYESWSIPFSVMLVVPLGVIGALLATSMRGLSNDVFFQVGLLTTIGLSAKNAILIVEFAKELHEQGKGIVEAAIEACRMRLRPIVMTSLAFILGVVPLAISTGAGSGSQHAIGTGVIGGMVTATVLAIFWVPLFYVAVSTLFKDEASKQQASVEKGQ
notes: MexB, inner membrane RND transporter of Pseudomonas aeruginosa; called native; One trimer in each nanodisc (POPC, MSP1E3D1); also called RND; source: E. coli C43ΔacrB, purified (HisTrap HP, gel filtration Superose 6), reconstituted into POPC/MSP1E3D1 nanodiscs
B3: lipidated MexA (natural protein)
chain: CGKSEAPPPAQTPEVGIVTLEAQTVTLNTELPGRTNAFRIAEVRPQVNGIILKRLFKEGSDVKAGQQLYQIDPATYEADYQSAQANLASTQEQAQRYKLLVADQAVSKQQYADANAAYLQSKAAVEQARINLRYTKVLSPISGRIGRSAVTEGALVTNGQANAMATVQQLDPIYVDVTQPSTALLRLRRELASGQLERAGDNAAKVSLKLEDGSQYPLEGRLEFSEVSVDEGTGSVTIRAVFPNPNNELLPGMFVHAQLQEGVKQKAILAPQQGVTRDLKGQATALVVNAQNKVELRVIKADRVIGDKWLVTEGLNAGDKIITEGLQFVQPGVEVKTVPAKNVASAQKADAAPAKTDSKG
modifications: lipidated (palmitoylation of an N-terminal cysteinyl residue)
notes: MexA, periplasmic membrane fusion protein of Pseudomonas aeruginosa, native lipidated form, 39 kDa monomer; also called native lipid-modified MFP; source: E. coli C43ΔacrB, purified (HisTrap HP, gel filtration Superose 6), in 0.03% DDM

Series [1] concerns the molecule itself. As to the kind of experiment: negative-stain electron microscopy, single-particle analysis; nanodisc-reconstituted RND and OMF mixed with lipidated MFP (1:1:10, or SEC-purified complex), stained with 2% uranyl acetate on carbon-coated grids; reference-free two-dimensional class averages (SPIDER).
Series [2] has as its target B1. As to the kind of experiment: native gel or EMSA; native PAGE, 4–15% gradient gel, Tris-Glycine running buffer, silver stained; nanodisc-reconstituted MexB and OprM mixed 1:1, with or without lipidated MexA (1:1:10 molar ratio). Conditions: both partners purified. A general note: In EMSA bound probe runs differently from free probe, usually more slowly.
The target in series [3] is B2. The description is as above. Conditions: both partners purified.

For B1, in series [1], the binding result is “binds”.

For B2, the binding result in series [1] is given as “binds”.

For the molecule B3, the binding result in series [2] and in series [3] was “binds” throughout.
